Assay results taken from US20090099075A1.

Biological target: human hair (hair keratin) (human)
Test: quantitative hair binding assay, peroxidase coupled via the His tag, TMB

absorption at 405 nm: 0.65 A405 nm
B1: KBD-B (keratin-binding domain B of human desmoplakin), His-tagged, expressed from pQE30-KBD-B (SEQ ID No.: 166) (protein)
chain: MRGSHHHHHHGSACELEPHTGLLLLSVQKRSMSFQGIRQPVTVTELVDSGILRPSTVNELESGQISYDEVGERIKDFLQGSSCIAGIYNETTKQKLGIYEAMKIGLVRPGTALELLEAQAATGFIVDPVSNLRLPVEEAYKRGLVGIEFKEKLLSAERAVTGYNDPETGNIISLFQAMNKELIEKGHGIRLLEAQIATGGIIDPKESHRLPVDIAYKRGYFNEELSEILSDPSDDTKGFFDPNTEENLTYLQLKERCIKDEETGLCLLPLKEKKKQVQTSQKNTLRKRRVVIVDPETNKEMSVQEGVDLQPSLIS
